From patent publication US20190309059A1 (SHANGHAI PHARMAEXPLORER, published 2019)
One block for each binder: values may come before it.

What was measured:
[1] = biological target: his-labeled human IL-13 (immunogen A) (human) (UniProt P35225); experiment: FACS blocking, biotin-IL-13 on IL-13Ra2 HEK293 cells; antibody at 0.27 nM
[2] = biological target: his-labeled human IL-13R130Q variant (human) (UniProt P35225); experiment: ELISA, IL-13R130Q variant; antibody at 2.67 nM
[3] = biological target: his-labeled human IL-13 (immunogen A) (human) (UniProt P35225); experiment: FACS blocking, biotin-IL-13 on IL-13Ra2 HEK293 cells; antibody at 6.67 nM
[4] = biological target: his-labeled human IL-13 (immunogen A) (human) (UniProt P35225); experiment: FACS blocking, biotin-IL-13 on IL-13Ra1/IL-4Ra HEK293 cells; antibody at 1.33 nM
[5] = biological target: his-labeled human IL-13 (immunogen A) (human) (UniProt P35225); experiment: FACS blocking, biotin-IL-13 on IL-13Ra1/IL-4Ra HEK293 cells; antibody at 6.67 nM
[6] = biological target: his-labeled human IL-13 (immunogen A) (human) (UniProt P35225); experiment: FACS blocking, biotin-IL-13 on IL-13Ra1/IL-4Ra HEK293 cells; antibody at 0.27 nM
[7] = biological target: his-labeled human IL-13 (immunogen A) (human) (UniProt P35225); experiment: FACS blocking, biotin-IL-13 on IL-13Ra1/IL-4Ra HEK293 cells; antibody at 0.002 nM
[8] = biological target: cynomolgus IL-13 (purchased from sino biological) (cynomolgus) (UniProt Q0PW92); experiment: ELISA, cynomolgus IL-13; antibody at 2.67 nM
[9] = biological target: his-labeled human IL-13 (immunogen A) (human) (UniProt P35225); experiment: FACS blocking, biotin-IL-13 on IL-13Ra1/IL-4Ra HEK293 cells; antibody at 166.67 nM
[10] = biological target: cynomolgus IL-13 (purchased from sino biological) (cynomolgus) (UniProt Q0PW92); experiment: ELISA, cynomolgus IL-13; antibody at 0.004 nM
[11] = biological target: his-labeled human IL-13 (immunogen A) (human) (UniProt P35225); experiment: SPR (Biacore)
[12] = biological target: his-labeled human IL-13 (immunogen A) (human) (UniProt P35225); experiment: FACS blocking, biotin-IL-13 on IL-13Ra2 HEK293 cells; antibody at 0.01 nM
[13] = biological target: his-labeled human IL-13 (immunogen A) (human) (UniProt P35225); experiment: FACS blocking, biotin-IL-13 on IL-13Ra1/IL-4Ra HEK293 cells; antibody at 0.05 nM
[14] = biological target: his-labeled human IL-13R130Q variant (human) (UniProt P35225); experiment: ELISA, IL-13R130Q variant; antibody at 0.004 nM
[15] = biological target: his-labeled human IL-13 (immunogen A) (human) (UniProt P35225); experiment: FACS blocking, biotin-IL-13 on IL-13Ra1/IL-4Ra HEK293 cells; antibody at 33.33 nM
[16] = biological target: his-labeled human IL-13 (immunogen A) (human) (UniProt P35225); experiment: FACS blocking, biotin-IL-13 on IL-13Ra2 HEK293 cells; antibody at 0.002 nM
[17] = biological target: his-labeled human IL-13 (immunogen A) (human) (UniProt P35225); experiment: FACS blocking, biotin-IL-13 on IL-13Ra2 HEK293 cells; antibody at 0.05 nM
[18] = biological target: his-labeled human IL-13 (immunogen A) (human) (UniProt P35225); experiment: FACS blocking, biotin-IL-13 on IL-13Ra2 HEK293 cells; antibody at 1.33 nM
[19] = biological target: his-labeled human IL-13R130Q variant (human) (UniProt P35225); experiment: ELISA, IL-13R130Q variant; antibody at 0.11 nM
[20] = biological target: his-labeled human IL-13 (immunogen A) (human) (UniProt P35225); experiment: FACS blocking, biotin-IL-13 on IL-13Ra2 HEK293 cells; antibody at 166.67 nM
[21] = biological target: his-labeled human IL-13 (immunogen A) (human) (UniProt P35225); experiment: FACS blocking, biotin-IL-13 on IL-13Ra1/IL-4Ra HEK293 cells; antibody at 0.01 nM
[22] = biological target: his-labeled human IL-13 (immunogen A) (human) (UniProt P35225); experiment: FACS blocking, biotin-IL-13 on IL-13Ra2 HEK293 cells; antibody at 33.33 nM
[23] = biological target: cynomolgus IL-13 (purchased from sino biological) (cynomolgus) (UniProt Q0PW92); experiment: ELISA, cynomolgus IL-13; antibody at 0.021 nM
[24] = biological target: cynomolgus IL-13 (purchased from sino biological) (cynomolgus) (UniProt Q0PW92); experiment: ELISA, cynomolgus IL-13; antibody at 0.53 nM
[25] = biological target: his-labeled human IL-13 (immunogen A) (human) (UniProt P35225); experiment: cell-based or functional assay
[26] = biological target: his-labeled human IL-13 (immunogen A) (human) (UniProt P35225); experiment: ELISA, biotin-immunogen A; antibody at 0.001 nM
[27] = biological target: cynomolgus IL-13 (purchased from sino biological) (cynomolgus) (UniProt Q0PW92); experiment: ELISA, cynomolgus IL-13; antibody at 0.11 nM
[28] = biological target: his-labeled human IL-13 (immunogen A) (human) (UniProt P35225); experiment: ELISA, biotin-immunogen A; antibody at 0.11 nM

Sequence of cynomolgus IL-13 (purchased from sino biological) (cynomolgus) (Q0PW92 entry or part of it): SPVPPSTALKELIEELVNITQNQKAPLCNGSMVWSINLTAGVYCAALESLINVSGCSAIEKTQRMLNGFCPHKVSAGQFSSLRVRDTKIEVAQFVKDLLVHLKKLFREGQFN
Sequence of his-labeled human IL-13R130Q variant (human) (P35225 other isoform, or with tags, fused parts or gaps mutant): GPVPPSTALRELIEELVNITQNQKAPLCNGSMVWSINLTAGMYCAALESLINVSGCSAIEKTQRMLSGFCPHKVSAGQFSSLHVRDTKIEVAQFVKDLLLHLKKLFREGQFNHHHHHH

mean fluorescence intensity [1]: 56.3
OD450 nm [2]: 2.92
mean fluorescence intensity [3]: 25
mean fluorescence intensity [4]: 45.7
mean fluorescence intensity [5]: 28.3
mean fluorescence intensity [6]: 72.6
mean fluorescence intensity [7]: 105
OD450 nm [8]: 3.2
mean fluorescence intensity [9]: 20
OD450 nm [10]: 0.17
Kd [11]: < 90 nM
mean fluorescence intensity [12]: 95.9
mean fluorescence intensity [13]: 90.3
OD450 nm [14]: 0.2
mean fluorescence intensity [15]: 20.2
mean fluorescence intensity [16]: 101
mean fluorescence intensity [17]: 81.6
mean fluorescence intensity [18]: 34.6
OD450 nm [19]: 1.23
mean fluorescence intensity [20]: 20.4
mean fluorescence intensity [21]: 101
mean fluorescence intensity [22]: 22.8
OD450 nm [23]: 0.408
OD450 nm [24]: 2.68
Periostin (pg/mL), MRCS cells + IL-13 5 ng/mL; antibody at 0.0002 nM [25]: 6190 pg/mL
Periostin (pg/mL), MRCS cells + IL-13 5 ng/mL; antibody at 0.001 nM [25]: 4630 pg/mL
Periostin (pg/mL), MRCS cells + IL-13 5 ng/mL; antibody at 0.004 nM [25]: 3480 pg/mL
Periostin (pg/mL), MRCS cells + IL-13 5 ng/mL; antibody at 0.021 nM [25]: 3570 pg/mL
Periostin (pg/mL), MRCS cells + IL-13 5 ng/mL; antibody at 0.11 nM [25]: 3220 pg/mL
Periostin (pg/mL), MRCS cells + IL-13 5 ng/mL; antibody at 0.53 nM [25]: 1450 pg/mL
Periostin (pg/mL), MRCS cells + IL-13 5 ng/mL; antibody at 2.67 nM [25]: 927 pg/mL
Periostin (pg/mL), MRCS cells + IL-13 5 ng/mL; antibody at 13.3 nM [25]: 1150 pg/mL
TARC (pg/mL), A549 cells + IL-13 + TNFα; antibody at 0.001 nM [25]: 3160 pg/mL
TARC (pg/mL), A549 cells + IL-13 + TNFα; antibody at 0.004 nM [25]: 2950 pg/mL
TARC (pg/mL), A549 cells + IL-13 + TNFα; antibody at 0.021 nM [25]: 2730 pg/mL
TARC (pg/mL), A549 cells + IL-13 + TNFα; antibody at 0.11 nM [25]: 1850 pg/mL
TARC (pg/mL), A549 cells + IL-13 + TNFα; antibody at 0.53 nM [25]: 655 pg/mL
TARC (pg/mL), A549 cells + IL-13 + TNFα; antibody at 2.67 nM [25]: 159 pg/mL
TARC (pg/mL), A549 cells + IL-13 + TNFα; antibody at 13.3 nM [25]: 50 pg/mL
TARC (pg/mL), A549 cells + IL-13 + TNFα; antibody at 66.7 nM [25]: 36 pg/mL
VCAM-1 fluorescence intensity, HUVEC + IL-13 0.5 ng/mL + TNFα; antibody at 0.0002 nM [25]: 364
VCAM-1 fluorescence intensity, HUVEC + IL-13 0.5 ng/mL + TNFα; antibody at 0.001 nM [25]: 373
VCAM-1 fluorescence intensity, HUVEC + IL-13 0.5 ng/mL + TNFα; antibody at 0.004 nM [25]: 393
VCAM-1 fluorescence intensity, HUVEC + IL-13 0.5 ng/mL + TNFα; antibody at 0.021 nM [25]: 409
VCAM-1 fluorescence intensity, HUVEC + IL-13 0.5 ng/mL + TNFα; antibody at 0.11 nM [25]: 251
VCAM-1 fluorescence intensity, HUVEC + IL-13 0.5 ng/mL + TNFα; antibody at 0.53 nM [25]: 265
VCAM-1 fluorescence intensity, HUVEC + IL-13 0.5 ng/mL + TNFα; antibody at 2.67 nM [25]: 246
VCAM-1 fluorescence intensity, HUVEC + IL-13 0.5 ng/mL + TNFα; antibody at 13.3 nM [25]: 186
B1: c29D9H8 (mouse-human chimeric IL-13 antibody) (antibody, V domains shown)
VH: QVQLQQSGAELVRPGASVTLSCKASGYTFTDYEMHWVKQTPVHGLEWIGGIDPETGGTASNQKFKGKAILTADKSSSTAYMELRSLTSEDSAVYYCTSGDYFGGGPFAYWGQGTLVTVSA
VL: DIKMTQSPSSMYASLGERVTITCKASQDINSYLSWFQQKPGKSPKTLIYRANRLVDGVPSRFSGSGSGQDYSLTISSLDYEDMGIYYCLQYDEFPYTFGGGTKLEIK

B2: 28A2E11 (lead antibody, mouse hybridoma) (antibody, V domains shown)
VH: EVQLQQSGAELVKPGASVKLSCTASGFNIKDYYMHWVKQRTEQGLEWIGRIDPEDGETKYAPKFHDKATLTADTSSNTAYLQFSSLASEDTAVYYCTRYDYYGPFAYWGQGTLVTVSA
VL: QAVVTQESVLTTSPGETVTLTCRSSTGAVTTSNYANWVQEKPDHLFTGLIGGTNNRAPGVPARFSGSLIGDKAALTITGAQTEDEAIYFCALWYINHFIFGSGTKVTVL
notes: Mouse monoclonal antibody purified from hybridoma supernatant on Protein G
mean fluorescence intensity [1]: 72.1
mean fluorescence intensity [3]: 55.9
mean fluorescence intensity [4]: 39.6
mean fluorescence intensity [5]: 28.8
OD450 nm [26]: 0.07
mean fluorescence intensity [6]: 64.2
mean fluorescence intensity [7]: 74.7
OD450 nm [27]: 0.35
OD450 nm [8]: 1.35
mean fluorescence intensity [9]: 24.6
OD450 nm [10]: 0.08
mean fluorescence intensity [12]: 79.7
mean fluorescence intensity [13]: 71.5
mean fluorescence intensity [15]: 27.2
mean fluorescence intensity [16]: 76.5
mean fluorescence intensity [17]: 76.9
mean fluorescence intensity [18]: 60.1
mean fluorescence intensity [20]: 53.3
mean fluorescence intensity [21]: 76.2
mean fluorescence intensity [22]: 56.6
OD450 nm [23]: 0.14
OD450 nm [28]: 0.74
OD450 nm [24]: 0.83
TARC (pg/mL), A549 cells + IL-13 5 ng/mL + TNFα; antibody at 0.001 nM [25]: 1850 pg/mL
TARC (pg/mL), A549 cells + IL-13 5 ng/mL + TNFα; antibody at 0.004 nM [25]: 1700 pg/mL
TARC (pg/mL), A549 cells + IL-13 5 ng/mL + TNFα; antibody at 0.021 nM [25]: 1590 pg/mL
TARC (pg/mL), A549 cells + IL-13 5 ng/mL + TNFα; antibody at 0.11 nM [25]: 1360 pg/mL
TARC (pg/mL), A549 cells + IL-13 5 ng/mL + TNFα; antibody at 0.5 nM [25]: 601 pg/mL
TARC (pg/mL), A549 cells + IL-13 5 ng/mL + TNFα; antibody at 2.7 nM [25]: 118 pg/mL
TARC (pg/mL), A549 cells + IL-13 5 ng/mL + TNFα; antibody at 13.3 nM [25]: 51 pg/mL
TARC (pg/mL), A549 cells + IL-13 5 ng/mL + TNFα; antibody at 66.7 nM [25]: 56 pg/mL
